Reference: the supplement of paper PMC12042874
± gives the uncertainty stated by the source.

Experiment: amyloid nucleation score (Sup35N fusion, yeast selection) (log enrichment); library NNK2; higher = more nucleation; inactive = no reads after selection
Summary of the method: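 The nucleation score is the DiMSum log enrichment of output over input reads, centred on the mode score of non-aggregating sequences. Only sequences with 100 or more input reads were scored, using Illumina sequencing of input and output plasmid inserts. Psi-negative yeast expressing Sup35N fused to peptides of 20 random codons were induced 24 hours with 100 μM copper sulfate and grown 7 days at 30°C on medium lacking adenine and uracil.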

Row | Substance | amyloid nucleation score
1 | ADSWWSLYNIFEFSSINLNV | inactive
2 | AEMVSANRLSKCEMTIRLWD | 3.64 ± 0.077
3 | AERIFSQ | -1.45 ± 0.62
4 | AEVGTPESLLEGNIDRERIP | 0.42 ± 0.36
5 | AEYKRGKEGSPLAIWWQLDP | 2.34 ± 0.13
6 | AEYPHAFFSDCACYHIPGSA | 0.586 ± 0.57
7 | AFCKALCIVRRYSPPPLIVA | inactive
8 | AFDEVSSFGGFFERCFWIKL | 5.91 ± 0.076
9 | AFGFSI | -1.3 ± 0.42
10 | AFGKACPGMCMTKFTACTNR | 0.569 ± 0.13
11 | AFICMFVIRFDWYNMS | -0.558 ± 1
12 | AFNATIRNAC | -0.746 ± 0.62
13 | AFSMCSDRWIWLSCLNVEFV | 9.677 ± 0.048
14 | AFWRLAVLFVVCRIIF | 0.13 ± 0.65
15 | AFYCTVC | 7.346 ± 0.043
16 | AFYKFMSEHSSAVHCDPMHD | -0.025 ± 0.76
17 | AGFWEDEVFRV | -0.714 ± 0.48
18 | AGMMFKR | 1.71 ± 0.37
19 | AGSGFRSATWYRASTWMAFG | 2.93 ± 0.13
20 | AGSSS | -0.561 ± 0.63
21 | AHFQYRGNRAFQVWNYCGKY | 2.55 ± 0.12
22 | AHPMEQCKIL | 0.545 ± 0.41
23 | AHTRSAMGDMPNVNGFLKCT | inactive
24 | AIDAFFLSV | -0.191 ± 0.26

Row | Substance | amyloid nucleation score
25 | AIMGHGLPYGTGLMEVGGAK | 5.13 ± 0.084
26 | AITGGFSAFIRYYGVMYDVG | -0.736 ± 0.45
27 | AIYKDRGWGATGHVFRILGR | 0.752 ± 0.57
28 | AIYLWSF | 4.85 ± 0.054
29 | AKVRLYVRGGSLLIGIRSVV | 0.555 ± 0.22
30 | AKWRDRSETYYLYFRISVRI | -0.493 ± 1.1
31 | ALATFVTPVAESA | 4.05 ± 0.05
32 | ALDSNSWPYDGGMWRTT | -0.232 ± 1.1
33 | ALFRPEYRFM | 2.64 ± 0.13
34 | ALFVYYDIQVVGITY | -1.1 ± 0.4
35 | ALILAVLPSKDPIRVCWYSG | 0.04 ± 0.33
36 | ALLALTVLIYNLIDMLQVNR | 0.728 ± 0.8
37 | ALSSVFYIDFHFDYLYDVTL | 2.72 ± 0.2
38 | ALVCLMKSSFCTCEHLYDVR | 7.168 ± 0.044
39 | ALWCRENFINCYIPYLQMFF | 6.219 ± 0.036
40 | ALYRL | 0.233 ± 0.62
41 | AMMFDVFRYLRESVISMCKG | 0.367 ± 0.54
42 | AMNRFST | -0.975 ± 1.1
43 | ANCCLRTWVFCRSYCYIILF | -0.014 ± 0.8
44 | ANGSKGLVLTLNGDSKCVEC | 0.188 ± 0.25
45 | ANKSAGVLYNAASDLRVGVR | 0.923 ± 0.55
46 | ANPQSKLLNVSFIGTVQGWV | 3.04 ± 0.12
47 | ANPWDRSFIVKVCRSDVVRV | 0.246 ± 0.38
48 | ANRKRVK | 0.223 ± 0.61

Row | Substance | amyloid nucleation score
49 | ANSAYCIGLCLGNCFMSYFC | 7.452 ± 0.043
50 | ANSPVGHEPGFECKSGFRET | 0.168 ± 0.57
51 | ANTFIPFFGISSVRSGRNAA | 2.65 ± 0.11
52 | ANTVHLKMLANSRSPDGTFR | 0.441 ± 0.32
53 | ANVENVAYSDTISRSDSDVT | 0.805 ± 0.66
54 | APFDMVGVTVLDSPVMYTNA | 0.512 ± 0.43
55 | APVMYVT | 0.057 ± 0.48
56 | AQWCEGVVSLQLSWVVCVEG | 1.16 ± 0.34
57 | ARCDCGFVRGGNCVVQYCLS | 7.529 ± 0.04
58 | ARECNY | 3.78 ± 0.063
59 | ARLKLDRRPMKSSMVCIHSA | 6.16 ± 0.089
60 | ARVRVYRWWTLATTWGRVGF | 2.85 ± 0.14
61 | ASGVYHDSFRRLCCMGDLSC | -0.121 ± 0.18
62 | ASHRVNGEVRYRRWSVLKRM | 0.839 ± 0.24
63 | ASMYLNSSH | inactive
64 | ASNAFRSGYWQGERHERMRL | 1.07 ± 0.14
65 | ASSIG | 0.072 ± 0.26
66 | ASSSGPGCSLVSSVHASRQG | 1.54 ± 0.52
67 | ASVPCVIMGRASRPRVPRMS | 1.42 ± 0.29
68 | ASWIAGYITMHTISSFP | 0.056 ± 0.36
69 | ATARS | 0.701 ± 0.29
70 | ATHVCVGFTYGFWW | 2.4 ± 0.14
71 | ATKVISALSIRMRRK | 1.32 ± 0.3
